Laboratory results taken from publication PMC2875016.

How the values were obtained:
[1] = target: HpNikR mutant M5 (H74G, H75G) (Helicobacter pylori); assay: crystal structure
[2] = target: HpNikR mutant M6 (C96S) (Helicobacter pylori); assay: crystal structure

| Substance | stoichiometry N [1] | stoichiometry N [2] |
| --- | --- | --- |
| HpNikR mutant M5 (H74G, H75G) (natural protein) | 4 | – |
| HpNikR mutant M6 (C96S) (natural protein) | – | 4 |
